Reference: publication PMC5355875, “Crystal structure of a raw-starch-degrading bacterial α-amylase belonging to subfamily 37 of the glycoside hydrolase family GH13” (Scientific Reports, 2017)
Changes are numbered by the printed parent chain. Names may count otherwise.

B1: AmyPΔSBD (uncultured bacterium) (protein)
chain: MCDSALTAQANDLRIYQVMVESFVNGDDAIGHGTGYGTSHHKGDLQGIIDSLDYIESLGMNAIWLTPIFDSIPVEGQDHWADRLDATGYFTSNYFAVDPRFGTMEQAKELVEKAHEKGLYVFFDGVFGHHKDNVVPSPEGRLPVGENNPVSYPESLAFYQEVATFWIEELKIDGWRLDQAYQVPTEAWTAIRASVDEASKSVTYVNSEGEAVNPLGYMVAEIWNNENYIKETGYGAEGEPALCSAFDFPVRYRVVETFAANENGIGNKGGKWLDEGMNLHRLYPSHAQPNLMLGNHDLVRFGDLLQRGNIASPEQAEYWERHKAALSFQAAYSGPITLYYGEEIGDELEGYAQKVEQDCAVQGLCDDHVARTSANIDGLTVNLNEKQRDLKQYVSQLMTLRAAHPALSRGERTNIVANETVYIDHKQADDDALIYMVSTTADQDTVELKASDIASDGQLVDLLTGKVHSAINGEYQISLAPFEAKFLLIETPSASG
notes: SBD-truncated catalytic domain, residues 1-496, N-terminal 6xHis (TEV site)
B2: AmyPΔSBD (uncultured bacterium; N148Y) (protein)
chain: B1 chain with N148Y
notes: as for B1
B3: AmyPΔSBD (uncultured bacterium; Y351A) (protein)
chain: B1 chain with Y351A
notes: as for B1

Assays:
[1] = molecular target: T1, AmyP (uncultured bacterium, UniProt D9MZ14, E221Q); test: X-ray crystal structure, […] Å; type: binding; conditions: co-crystallised with γ-CD, pH 6.0; active site, subsites -1, -2 and -3
T1 construct: gene Amy-1E; full-length residues 1-639 crystallised, 6xHis tag cut by TEV, E. coli BL21(DE3); only residues 1-496 (AmyPΔSBD) seen in crystals, SBD partly degraded

[2] = system: T2, OC[C@H]1O[C@@H]2O[C@H]3[C@H](O)[C@@H](O)[C@@H](O[C@H]4[C@H](O)[C@@H](O)[C@@H](O[C@H]5[C@H](O)[C@@H](O)[C@@H](O[C@H]6[C@H](O)[C@@H](O)[C@@H](O[C@H]7[C@H](O)[C@@H](O)[C@@H](O[C@H]8[C@H](O)[C@@H](O)[C@@H](O[C@H]9[C@H](O)[C@@H](O)[C@@H](O[C@H]1[C@H](O)[C@H]2O)O[C@@H]9CO)O[C@@H]8CO)O[C@@H]7CO)O[C@@H]6CO)O[C@@H]5CO)O[C@@H]4CO)O[C@@H]3CO; test: reducing sugar assay (copper-bicinchoninate), Michaelis-Menten fit; type: biochemical, uncultured bacterium; conditions: 40 °C, pH 6.5, 20 mM HEPES, 150 mM NaCl, 10 mM CaCl2
T2 construct: SBD-truncated catalytic domain, residues 1-496, N-terminal 6xHis (TEV site)
Description: (§1) reducing sugar assay (copper-bicinchoninate), Michaelis-Menten fit on AmyPΔSBD

[3] = molecular target: T3, AmyP (uncultured bacterium, UniProt D9MZ14); test: X-ray crystal structure, […] Å; type: binding; conditions: co-crystallised with β-CD, pH 8.5; active site, subsites -2 and -3
T3 construct: gene Amy-1E; full-length residues 1-639 crystallised, 6xHis tag cut by TEV, E. coli BL21(DE3); only residues 1-496 (AmyPΔSBD) seen in crystals, SBD partly degraded

[4] = substrate: OC[C@H]1O[C@@H]2O[C@H]3[C@H](O)[C@@H](O)[C@@H](O[C@H]4[C@H](O)[C@@H](O)[C@@H](O[C@H]5[C@H](O)[C@@H](O)[C@@H](O[C@H]6[C@H](O)[C@@H](O)[C@@H](O[C@H]7[C@H](O)[C@@H](O)[C@@H](O[C@H]8[C@H](O)[C@@H](O)[C@@H](O[C@H]9[C@H](O)[C@@H](O)[C@@H](O[C@H]1[C@H](O)[C@H]2O)O[C@@H]9CO)O[C@@H]8CO)O[C@@H]7CO)O[C@@H]6CO)O[C@@H]5CO)O[C@@H]4CO)O[C@@H]3CO; test: reducing sugar assay (copper-bicinchoninate), Michaelis-Menten fit; type: biochemical, uncultured bacterium; conditions: 40 °C, pH 6.5, 20 mM HEPES, 150 mM NaCl, 10 mM CaCl2
Description: as §1

Molecule | Km [4] [mM] | kcat [4] [s⁻¹] | kcat/Km [4] [M⁻¹ s⁻¹] | other results
OC[C@H]1O[C@H](O[C@H]2[C@H](O)[C@@H](O)[C@@H](O[C@H]3[C@H](O)[C@@H](O)C(O)O[C@@H]3CO)O[C@@H]2CO)[C@H](O)[C@@H](O)[C@@H]1O (some centres unmarked) [maltotriose] | – | – | – | X-ray crystal structure, 2.55 Å [1]: electron density representing a maltotriose molecule bound to the active site
AmyPΔSBD (uncultured bacterium; K131A) | – | – | – | Km [2]: 1.29 ± 0.13 mM; kcat [2]: 7.47 ± 0.004 s⁻¹; kcat/Km [2]: 5800 M⁻¹ s⁻¹
AmyPΔSBD (uncultured bacterium; N148A) | – | – | – | Km [2]: 0.20 ± 0.03 mM; kcat [2]: 22.59 ± 0.007 s⁻¹; kcat/Km [2]: 113000 M⁻¹ s⁻¹
OC[C@H]1O[C@H](O[C@H]2[C@H](O)[C@@H](O)C(O)O[C@@H]2CO)[C@H](O)[C@@H](O)[C@@H]1O (some centres unmarked) [maltose] | – | – | – | X-ray crystal structure, 1.95 Å [3]: electron density representing a maltose molecule at subsites -2 and -3
B1 | 0.12 ± 0.005 | 39.58 ± 0.004 | 323000 | –
B2 | 0.10 ± 0.009 | 26.11 ± 0.01 | 274000 | –
B3 | 2.11 ± 0.09 | 25.02 ± 0.006 | 11900 | –
